Reference: patent publication US20110165081A1

Tests used:
[1] = molecular target: prostate specific membrane antigen (PSMA), full-length (human) (UniProt Q04609); experiment: radiolabelled mAb bound to PSMA-3T3 cells
[2] = molecular target: prostate specific membrane antigen (PSMA), full-length (human) (UniProt Q04609); experiment: radiolabelled mAb bound to PSMA-expressing cells, average
[3] = molecular target: prostate specific membrane antigen (PSMA), full-length (human) (UniProt Q04609); experiment: radiolabelled mAb bound to PSMA-3T3 cells (bracket: 3T3 control)
[4] = molecular target: prostate specific membrane antigen (PSMA), full-length (human) (UniProt Q04609); experiment: cell-based or functional assay

prostate specific membrane antigen (PSMA), full-length (human), sequence (Q04609 whole entry): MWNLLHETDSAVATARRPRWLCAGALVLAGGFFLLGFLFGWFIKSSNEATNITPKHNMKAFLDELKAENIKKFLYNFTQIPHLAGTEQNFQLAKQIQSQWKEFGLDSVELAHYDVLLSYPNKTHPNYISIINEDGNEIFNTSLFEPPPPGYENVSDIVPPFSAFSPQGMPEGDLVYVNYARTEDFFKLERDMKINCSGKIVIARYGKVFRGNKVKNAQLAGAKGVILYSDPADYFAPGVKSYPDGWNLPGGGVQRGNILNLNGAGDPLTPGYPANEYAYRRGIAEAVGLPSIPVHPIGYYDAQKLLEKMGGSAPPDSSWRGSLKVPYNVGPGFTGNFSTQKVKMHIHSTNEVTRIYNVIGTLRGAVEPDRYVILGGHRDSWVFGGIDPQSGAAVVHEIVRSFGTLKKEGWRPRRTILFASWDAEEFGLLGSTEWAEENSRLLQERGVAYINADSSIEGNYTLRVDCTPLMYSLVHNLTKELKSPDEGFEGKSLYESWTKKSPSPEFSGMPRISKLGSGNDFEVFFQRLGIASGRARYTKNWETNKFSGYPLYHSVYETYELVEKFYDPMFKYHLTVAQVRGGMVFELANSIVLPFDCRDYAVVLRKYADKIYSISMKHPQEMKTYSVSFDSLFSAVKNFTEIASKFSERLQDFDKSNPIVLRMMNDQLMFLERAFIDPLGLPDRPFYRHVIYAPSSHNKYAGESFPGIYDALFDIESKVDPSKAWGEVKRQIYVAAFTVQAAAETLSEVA

Immunoreactivity (%) [1]	Immunoreactivity (%), Average [2]	Immunoreactivity (%) [3]	Substance	LD50, immunotoxin cytotoxicity (Mab-Zap saporin secondary) on C4-2 cells [4]	LD50, immunotoxin cytotoxicity (Mab-Zap saporin secondary) on PSMA-3T3 cells [4]
58.5%	56.7%	54.9%	^111In radiolabeled CHX-A″-DTPA antibody mJ591		
			mAb J591 (ATCC #HB-12126) (antibody)	88.2 pM	89 pM
